Test results taken from US20190381086A1, “INHIBITION OF NEDDYLATION USING GLYCYL-tRNA SYNTHETASE INHIBITORS” (The Scripps Research Institute, priority 2015, published 2019).

Target: T1, Ubc12^N8 (Homo sapiens, UniProt P61081+Q15843, C111S)
T1 construct: DEN1 which processes NEDD8 to its mature, 76-amino acid form; made in house; conjugate made enzymatically in vitro
Test: Biolayer interferometry, immobilized Ubc12^N8
Type: binding
Conditions: for Kd: binding to immobilized Ubc12^N8
Description: V5-tagged GlyRS and Flag-tagged Ubc12-C111S genes were co-transfected to HEK293 cell for the assay. FIG. 3B: Strong binding of Ubc12^N8 to GlyRS as determined by biolayer interferometry. A.U. indicates Arbitrary Unit. Binding analysis to immobilized GST-GlyRS was carried out with the same concentration (62.5 nM) of NEDD8, Ubc12, or Ubc12^N8 at 30°. FIG. 3C: Biolayer interferometry analysis confirms that GlyRS binding to Ubc12^N8. Binding analysis to immobilized Ubc12^N8 was carried out with a range of concentrations of full-length (8.07 nM-129 nM) GlyRS. FIG. 3D: Structural model of the GlyRS-Ubc12^N8 interaction generated using Patchdock (a server for molecular docking). FIGS. 3E-G: Biolayer interferometry analysis confirms that F84-L93 and I232-M238 regions, but not Insertion 1, are important for GlyRS binding to Ubc12^N8. Binding analysis to immobilized Ubc12^N8 was carried out with a range of concentrations (1.25-20 μg/mL) of ΔF84-L93 (8.16-130 nM), ΔI232-M238 (8.13-130 nM), and Alnsertion 1 (62.5-125 nM) GlyRS. FIG. 3H: Over-expression of ΔI232-M238 GlyRS in HEK293 cells cannot promote NEDD8 conjugation of Ubc12. HEK293 cells were transfected with pcDNA6V5 vectors containing the indicated gene fragment with a V5-tag.
The conjugated Ubc12 was prepared by mixing APPBP1/UBA3 (2 μM), Ubc12 (C111S; the mutant would form a stable ester linkage to NEDD8) (70 μM), and His-SUMO-tagged NEDD8 (100 μM). The mixture was incubated at 25° C. for 16 h in 50 mM NaOAc pH 5.5, 50 mM NaCl, 1 mM MgCl2, and 2 mM ATP. Ubc12^N8 was then purified by gel filtration chromatography using a Superdex 200 column. The fractions containing only Ubc12^N8 were concentrated and used for the study. The purity of proteins was examined by SDS-PAGE to be above 95%.
The dissociation constants (Kd) were obtained with biolayer interferometry by using an Octet QK system (ForteBio, Menlo Park, Calif., USA). Samples or buffer were dispensed into 96-well plates (Millipore, Billerica, Mass.) at 200 μL per well. Operating temperature was maintained at 30° C. Proteins were diluted into kinetic buffer (PBS with 0.1% BSA and 0.002% Tween-20) and immobilized on either anti-GST or Ni-NTA sensor tips. The other proteins were diluted using the same buffer into a range of different concentrations. Assays with Ubc12^N8 were carried out using the acid kinetic buffer (50 mM NaOAc pH 5.5, 50 mM NaCl, 0.1% BSA, and 0.002% Tween-20). The raw data were processed by subtraction to reference cells and then aligned with baselines. The dissociation constants Kd were obtained by fitting the processed data using the 1:1 model in the Octet analysis software with R^2>0.99.
Indeed, GlyRS can bind to Ubc12^N8 in HEK293 cells as detected by co-immunoprecipitation (FIG. 3a). […] To quantify the difference, Ubc12^N8 was enzymatically made and purified, and its binding affinity to GlyRS was measured using biolayer interferometry. […] Therefore, it is possible that GlyRS enhances neddylation by protecting reaction intermediate Ubc12^N8.
Using the crystal structure of human GlyRS16 and of Ubc12N8 (adapted from its complex with substrate cullin and E3), a model was generated for the GlyRS-Ubc12^N8 interaction using the Patchdock algorithm (http://bioinfo3d.cs.tau.ac.il/PatchDock/). […]

T1 sequence (P61081 whole entry C111S): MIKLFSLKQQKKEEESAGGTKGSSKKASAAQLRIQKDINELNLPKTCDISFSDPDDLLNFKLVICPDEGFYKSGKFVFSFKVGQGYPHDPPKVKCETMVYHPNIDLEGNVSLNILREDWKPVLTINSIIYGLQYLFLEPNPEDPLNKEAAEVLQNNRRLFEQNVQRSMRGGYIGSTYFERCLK
T1 sequence (Q15843 1-76 limits assumed): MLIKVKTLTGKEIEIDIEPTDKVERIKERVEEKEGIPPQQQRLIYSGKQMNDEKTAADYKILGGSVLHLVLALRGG

Molecule | Kd [nM] | fold decrease of binding of GlyRS to Ubc12^N8 (versus full-length GlyRS) [fold] | binding of GlyRS to Ubc12^N8 (immobilized Ubc12^N8, FIG. 3f)
Insertion 1: GlyRS with Insertion 1 deleted (F147-F224 replaced by GSGSGG) (protein) MDGAGAEEVLAPLRLAVRQQGDLVRKLKEDKAPQVDVDKAVAELKARKRVLEAKELALQPKDDIVDRAKMEDTLKRRFFYDQAFAIYGGVSGLYDFGPVGCALKNNIIQTWRQHFIQEEQILEIDCTMLTPEPVLKTSGHVDKFADGSGSGGNLMFKTFIGPGGNMPGYLRPETAQGIFLNFKRLLEFNQGKLPFAAAQIGNSFRNEISPRSGLIRVREFTMAEIEHFVDPSEKDHPKFQNVADLHLYLYSAKAQVSGQSARKMRLGDAVEQGVINNTVLGYFIGRIYLYLTKVGISPDKLRFRQHMENEMAHYACDCWDAESKTSYGWIEIVGCADRSCYDLSCHARATKVPLVAEKPLKEPKTVNVVQFEPSKGAIGKAYKKDAKLVMEYLAICDECYITEMEMLLNEKGEFTIETEGKTFQLTKDMINVKRFQKTLYVEEVVPNVIEPSFGLGRIMYTVFEHTFHVREGDEQRTFFSFPAVVAPFKCSVLPLSQNQEFMPFVKELSEALTRHGVSHKVDDSSGSIGRRYARTDEIGVAFGVTIDFDTVNKTPHTATLRDRDSMRQIRAEISELPSIVQDLANGNITWADVEARYPLFEGQETGKKETIEE | 4.32 ± 0.12 | – | –
A84-93: GlyRS deletion mutant, F84-L93 replaced by GGG (protein) MDGAGAEEVLAPLRLAVRQQGDLVRKLKEDKAPQVDVDKAVAELKARKRVLEAKELALQPKDDIVDRAKMEDTLKRRFFYDQAGGGYDFGPVGCALKNNIIQTWRQHFIQEEQILEIDCTMLTPEPVLKTSGHVDKFADFMVKDVKNGECFRADHLLKAHLQKLMSDKKCSVEKKSEMESVLAQLDNYGQQELADLFVNYNVKSPITGNDLSPPVSFNLMFKTFIGPGGNMPGYLRPETAQGIFLNFKRLLEFNQGKLPFAAAQIGNSFRNEISPRSGLIRVREFTMAEIEHFVDPSEKDHPKFQNVADLHLYLYSAKAQVSGQSARKMRLGDAVEQGVINNTVLGYFIGRIYLYLTKVGISPDKLRFRQHMENEMAHYACDCWDAESKTSYGWIEIVGCADRSCYDLSCHARATKVPLVAEKPLKEPKTVNVVQFEPSKGAIGKAYKKDAKLVMEYLAICDECYITEMEMLLNEKGEFTIETEGKTFQLTKDMINVKRFQKTLYVEEVVPNVIEPSFGLGRIMYTVFEHTFHVREGDEQRTFFSFPAVVAPFKCSVLPLSQNQEFMPFVKELSEALTRHGVSHKVDDSSGSIGRRYARTDEIGVAFGVTIDFDTVNKTPHTATLRDRDSMRQIRAEISELPSIVQDLANGNITWADVEARYPLFEGQETGKKETIEE | 27 ± 0.4 | 9 | –
A232-238: GlyRS deletion mutant, I232-M238 replaced by GG (protein) MDGAGAEEVLAPLRLAVRQQGDLVRKLKEDKAPQVDVDKAVAELKARKRVLEAKELALQPKDDIVDRAKMEDTLKRRFFYDQAFAIYGGVSGLYDFGPVGCALKNNIIQTWRQHFIQEEQILEIDCTMLTPEPVLKTSGHVDKFADFMVKDVKNGECFRADHLLKAHLQKLMSDKKCSVEKKSEMESVLAQLDNYGQQELADLFVNYNVKSPITGNDLSPPVSFNLMFKTFGGPGYLRPETAQGIFLNFKRLLEFNQGKLPFAAAQIGNSFRNEISPRSGLIRVREFTMAEIEHFVDPSEKDHPKFQNVADLHLYLYSAKAQVSGQSARKMRLGDAVEQGVINNTVLGYFIGRIYLYLTKVGISPDKLRFRQHMENEMAHYACDCWDAESKTSYGWIEIVGCADRSCYDLSCHARATKVPLVAEKPLKEPKTVNVVQFEPSKGAIGKAYKKDAKLVMEYLAICDECYITEMEMLLNEKGEFTIETEGKTFQLTKDMINVKRFQKTLYVEEVVPNVIEPSFGLGRIMYTVFEHTFHVREGDEQRTFFSFPAVVAPFKCSVLPLSQNQEFMPFVKELSEALTRHGVSHKVDDSSGSIGRRYARTDEIGVAFGVTIDFDTVNKTPHTATLRDRDSMRQIRAEISELPSIVQDLANGNITWADVEARYPLFEGQETGKKETIEE | – | – | abolished the binding completely
GlyRS: human Glycyl-tRNA synthetase, recombinant full-length protein (SEQ ID NO: 2) (protein, listed as Homo sapiens) MDGAGAEEVLAPLRLAVRQQGDLVRKLKEDKAPQVDVDKAVAELKARKRVLEAKELALQPKDDIVDRAKMEDTLKRRFFYDQAFAIYGGVSGLYDFGPVGCALKNNIIQTWRQHFIQEEQILEIDCTMLTPEPVLKTSGHVDKFADFMVKDVKNGECFRADHLLKAHLQKLMSDKKCSVEKKSEMESVLAQLDNYGQQELADLFVNYNVKSPITGNDLSPPVSFNLMFKTFIGPGGNMPGYLRPETAQGIFLNFKRLLEFNQGKLPFAAAQIGNSFRNEISPRSGLIRVREFTMAEIEHFVDPSEKDHPKFQNVADLHLYLYSAKAQVSGQSARKMRLGDAVEQGVINNTVLGYFIGRIYLYLTKVGISPDKLRFRQHMENEMAHYACDCWDAESKTSYGWIEIVGCADRSCYDLSCHARATKVPLVAEKPLKEPKTVNVVQFEPSKGAIGKAYKKDAKLVMEYLAICDECYITEMEMLLNEKGEFTIETEGKTFQLTKDMINVKRFQKTLYVEEVVPNVIEPSFGLGRIMYTVFEHTFHVREGDEQRTFFSFPAVVAPFKCSVLPLSQNQEFMPFVKELSEALTRHGVSHKVDDSSGSIGRRYARTDEIGVAFGVTIDFDTVNKTPHTATLRDRDSMRQIRAEISELPSIVQDLANGNITWADVEARYPLFEGQETGKKETIEE | 3.21 ± 0.17 | – | –
